Data reported in US20230414702A1 (INSERM INSTITUT NATIONAL DE LA SANT ET DE LA REC HERCHE M …, published 2023).
Non-standard residues stand in square brackets, D forms with d. No end group written: not given here. NMeR = CN[C@@H](CCCNC(=N)N)C(=O)O; Nle = CCCC[C@H](N)C(=O)O

Tests used:
CD47 receptor [1] = biological target: T1, CD47 receptor (UniProt Q08722 19-323, limits assumed); assay: apparent Kd, biolayer interferometry (BI) on Octet RED96, biotinylated MEC-1 membrane preparation on SSA biosensors
T1 construct: whole, on cells; The assays used a whole MEC-1 cell membrane preparation, not purified CD47; also called membrane preparation from MEC-1 cells
T1 sequence (Q08722 19-323 limits assumed): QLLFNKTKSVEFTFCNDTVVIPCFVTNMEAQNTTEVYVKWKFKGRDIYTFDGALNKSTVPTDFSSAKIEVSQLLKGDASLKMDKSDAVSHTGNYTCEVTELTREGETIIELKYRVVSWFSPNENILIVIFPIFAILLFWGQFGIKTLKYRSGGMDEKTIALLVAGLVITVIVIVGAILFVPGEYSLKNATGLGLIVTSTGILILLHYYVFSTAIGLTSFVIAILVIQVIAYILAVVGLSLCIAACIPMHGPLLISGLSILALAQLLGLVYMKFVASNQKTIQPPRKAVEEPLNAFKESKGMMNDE
Description: This system monitors interference of light reflected from two sources (an internal reflection surface and the liquid/solid interface of a fiber optic sensor) to measure the rate of binding of molecules to the biosensor surface. MEC-1 cells membrane preparation is biotinylated with the EZ-Link NHS-PEG4-Biotin kit from Thermo-Scientific and excess biotin is removed using desalting column from Thermo-Scientific. […] Typically, the biosensors were pre-equilibrated in PBS containing either biotinylated membranes or biocytine 100 μg/mL. Biosensors are then equilibrated in assay buffer for 10 min, brought to baseline in assay buffer for 60 sec. and transferred to wells containing peptide in dose-response (association for 120 sec. and dissociation for 300 sec.). The double reference with either membrane-loaded biosensors without any peptide dose-response or biocytine-loaded biosensors with each peptide dose-response were run in parallel for background signal double subtractions.

CD47 receptor [2] = biological target: T1, CD47 receptor; assay: column Kd(µM)PR; binding to MEC-1 membrane preparation, method not named in Table 4
CD47 receptor [3] = biological target: T1, CD47 receptor; assay: apparent Kd, microscale thermophoresis (MST), Monolith NT.115, NT.115-labeled membrane
Protocol: (§1) For all experiments the concentration of the NT.115-labeled membrane was kept constant, while the concentrations of the ligand (peptide) was varied. After a short incubation time (5 min) the samples were loaded into MST premium glass capillaries and the MST analysis was performed using the Monolith NT.115.

CD47 receptor [4] = biological target: T1, CD47 receptor; assay: binding to MEC-1 membrane preparation; method not named in Table 3
CD47 receptor [5] = biological target: T1, CD47 receptor; assay: column Kd (OR); biolayer interferometry on Octet RED96, biotinylated MEC-1 membrane preparation on SSA biosensors
CD47 receptor [6] = biological target: T1, CD47 receptor; assay: microscale thermophoresis (MST), labeled MEC-1 membrane preparation
Protocol: as §1

CD47 receptor [7] = biological target: T1, CD47 receptor; assay: binding to MEC-1 membrane preparation; method not named in Table 3 (same value as the OR column of Table 2)

H-[dK][NMeR]FYVV[Nle]WK[dK]-OH [PKT16, H-(D)K ψ(CONMe)R F Y V V X W K (D)K-OH] gave a Kd (CD47 receptor [1]) of 7.4 µM, a Kd (CD47 receptor [2]) of 12.1 µM and a Kd (CD47 receptor [3]) of 1600 nM.

B1: PKT11, H-(D)K ψ(CONMe)R F Y V V M W K (D)K-OH (peptide)
peptide: KRFYVVMWKK
modifications: (D)-Lys at positions 1 and 10; N-methyl pseudopeptide bond ψ(CONMe) between (D)Lys1 and Arg2
Work on B1 yielded a Kd (CD47 receptor [2]) of 21.7 µM.

B2: M/Nle, kRFYVV(Nle)WKk (peptide)
peptide: H-[dK]RFYVV[Nle]WK[dK]-OH
SMILES: CCCC[C@H](NC(=O)[C@@H](NC(=O)[C@@H](NC(=O)[C@H](Cc1ccc(O)cc1)NC(=O)[C@H](Cc1ccccc1)NC(=O)[C@H](CCCNC(=N)N)NC(=O)[C@H](N)CCCCN)C(C)C)C(C)C)C(=O)N[C@@H](Cc1c[nH]c2ccccc12)C(=O)N[C@@H](CCCCN)C(=O)N[C@H](CCCCN)C(=O)O
Work on B2 yielded a Kd (CD47 receptor [4]) of 18 µM.

Work on Ac-KRFYVVMWKK-NH2 [peptide 2, Ac-KRFYVVMWKK-NH2] yielded a Kd (CD47 receptor [5]) of 40 µM and a Kd (CD47 receptor [6]) of 1200 nM.

KRFYVVMWKK ((D)-Lys at position 1 and (D)-Lys at position 10, also called 4(PKHB1)) [PKHB1, H-(D)K R F Y V V M W K (D)K-OH] was tested, and the Kd (CD47 receptor [2]) was 22.6 µM, the Kd (CD47 receptor [5]) was 43 µM and the Kd (CD47 receptor [7]) was 43 µM. It also gave a Kd (CD47 receptor [6]) of 3040 nM.

B3: 4N1K (peptide)
peptide: KRFYVVMWKK
notes: Decapeptide that mimics the C-terminal domain of TSP-1
With B3 the Kd (CD47 receptor [5]) was 19 µM, the Kd (CD47 receptor [7]) was 19 µM and the Kd (CD47 receptor [6]) was 2280 nM.

B4: PKT17, H-(D)K ψ(CONMe)R F Y V V L W K (D)K-OH (peptide)
peptide: H-[dK][NMeR]FYVVLWK[dK]-OH
SMILES: CC(C)C[C@H](NC(=O)[C@@H](NC(=O)[C@@H](NC(=O)[C@H](Cc1ccc(O)cc1)NC(=O)[C@H](Cc1ccccc1)NC(=O)[C@H](CCCNC(=N)N)N(C)C(=O)[C@H](N)CCCCN)C(C)C)C(C)C)C(=O)N[C@@H](Cc1c[nH]c2ccccc12)C(=O)N[C@@H](CCCCN)C(=O)N[C@H](CCCCN)C(=O)O
B4 gave a Kd (CD47 receptor [2]) of 12 µM.

For [dK]RFYVVAWK[dK] (Ala-scan analogue of PKHB1) [M7/A, kRFYVV(A)WKk], the Kd (CD47 receptor [4]) was 42 µM.

B5: R2/A, k(A)FYVVMWKk (peptide)
peptide: H-[dK]AFYVVMWK[dK]-OH
SMILES: CSCC[C@H](NC(=O)[C@@H](NC(=O)[C@@H](NC(=O)[C@H](Cc1ccc(O)cc1)NC(=O)[C@H](Cc1ccccc1)NC(=O)[C@H](C)NC(=O)[C@H](N)CCCCN)C(C)C)C(C)C)C(=O)N[C@@H](Cc1c[nH]c2ccccc12)C(=O)N[C@@H](CCCCN)C(=O)N[C@H](CCCCN)C(=O)O
notes: Ala-scan analogue of PKHB1
B5 showed a Kd (CD47 receptor [4]) of 6.2 µM.

B6: K9/A, kRFYVVMW(A)k (peptide)
peptide: H-[dK]RFYVVMWA[dK]-OH
SMILES: CSCC[C@H](NC(=O)[C@@H](NC(=O)[C@@H](NC(=O)[C@H](Cc1ccc(O)cc1)NC(=O)[C@H](Cc1ccccc1)NC(=O)[C@H](CCCNC(=N)N)NC(=O)[C@H](N)CCCCN)C(C)C)C(C)C)C(=O)N[C@@H](Cc1c[nH]c2ccccc12)C(=O)N[C@@H](C)C(=O)N[C@H](CCCCN)C(=O)O
notes: Ala-scan analogue of PKHB1
B6 gave a Kd (CD47 receptor [4]) of 27 µM.

B7: PKT15, H-(D)K ψ(CONMe)R F Y V V M W ψ(CONMe)K (D)K-OH (peptide)
peptide: KRFYVVMWKK
modifications: (D)-Lys at positions 1 and 10; N-methyl pseudopeptide bonds ψ(CONMe) between (D)Lys1 and Arg2 and between Trp8 and Lys9
In the case of B7, the Kd (CD47 receptor [2]) is reported as 16 µM.
